Assay results taken from paper PMC9020777.

Assays:
Experiment in all cases: FRET or BRET
mCerulean3-BCL-2 (human) = mCerulean3-BCL-2 (human) (UniProt P10415)
[1] = molecular target: mCerulean3-BCL-XL (human) (UniProt Q07817)
mCerulean3-BCL-W (mouse) = mCerulean3-BCL-W (mouse) (UniProt P70345)
mCerulean3-BCL-W (mouse), sequence (P70345 whole entry): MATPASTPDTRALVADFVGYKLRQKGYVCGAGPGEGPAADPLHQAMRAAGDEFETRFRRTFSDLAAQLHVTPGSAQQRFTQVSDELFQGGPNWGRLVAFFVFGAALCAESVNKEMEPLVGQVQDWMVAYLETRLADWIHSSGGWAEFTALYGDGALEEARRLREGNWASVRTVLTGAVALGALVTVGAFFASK

mCerulean3-BCL-2 (human), sequence (P10415 whole entry): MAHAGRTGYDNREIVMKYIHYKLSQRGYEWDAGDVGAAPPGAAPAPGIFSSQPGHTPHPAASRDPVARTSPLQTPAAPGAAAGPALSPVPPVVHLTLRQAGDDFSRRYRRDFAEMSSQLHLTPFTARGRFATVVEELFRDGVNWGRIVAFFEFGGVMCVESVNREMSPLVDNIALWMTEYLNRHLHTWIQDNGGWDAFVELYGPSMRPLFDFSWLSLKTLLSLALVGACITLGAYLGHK
mCerulean3-BCL-XL (human), sequence (Q07817 whole entry): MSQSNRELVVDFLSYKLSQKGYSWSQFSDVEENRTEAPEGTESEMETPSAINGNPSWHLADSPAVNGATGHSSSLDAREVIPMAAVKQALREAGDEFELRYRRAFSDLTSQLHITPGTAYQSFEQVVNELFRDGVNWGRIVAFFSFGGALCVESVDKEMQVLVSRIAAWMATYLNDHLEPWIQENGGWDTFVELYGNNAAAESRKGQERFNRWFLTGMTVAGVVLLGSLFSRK

- Kd (mCerulean3-BCL-2 (human)): 3 µM
- Kd [1]: 5 µM
- Kd (mCerulean3-BCL-W (mouse)): 6 µM
Substance: Venus-tBID (natural protein)
